For experiment [1], the target named is biotinylated single chain human FcRn (beta-2-microglobulin-human FcRn fusion polypeptide with (GGGGS)4-peptidic linker and C-terminal His(10)-Avi-tag) (human) (UniProt P61769). Kind of experiment: SPR, C1 chip, scFcRn about 80 RU, Interaction Map spot; 400 mM NaCl; intramolecular binding 1+2.
The target is the same in experiment [2]. Kind of experiment: SPR, C1 chip, scFcRn about 80 RU, Interaction Map spot; 400 mM NaCl; intramolecular binding 1+2+1+2.
The target is the same in experiment [3]. Kind of experiment: SPR, C1 chip, scFcRn about 80 RU, Interaction Map spot; 150 mM NaCl; intermolecular binding 1+1′.
Experiment [4] shares this target. Kind of experiment: SPR, C1 chip, scFcRn about 80 RU, Interaction Map spot; 150 mM NaCl; intermolecular binding 1+2′.
Experiment [5] shares this target. Kind of experiment: SPR, C1 chip, scFcRn about 80 RU, Interaction Map spot; 150 mM NaCl; intramolecular binding 1+2+1+2.
The target is the same in experiment [6]. The experiment can be described thus: SPR, C1 chip, scFcRn about 80 RU, Interaction Map spot; 400 mM NaCl and 20% (w/w) ethylene glycol; intramolecular binding 1+2. (In SPR one partner is held on a chip, and binding of the other changes the refractive index at the surface.)
The target is the same in experiment [7]. The experiment can be described thus: SPR, C1 chip, scFcRn about 80 RU, Interaction Map spot; 400 mM NaCl and 20% (w/w) ethylene glycol; intermolecular binding 1+1′.
The target is the same in experiment [8]. Kind of experiment: SPR, C1 chip, scFcRn about 80 RU, Interaction Map spot; 400 mM NaCl; intermolecular binding 1+1′.
For experiment [9] the target is unchanged. The experiment can be described thus: SPR, C1 chip, scFcRn about 80 RU, Interaction Map spot; 150 mM NaCl; intramolecular binding 1+2.
Experiment [10] shares this target. The experiment can be described thus: SPR, C1 chip, scFcRn about 80 RU, Interaction Map spot; 400 mM NaCl; intermolecular binding 1+2′.
Experiment [11] shares this target. The experiment can be described thus: SPR, C1 chip, scFcRn amine-coupled about 80 RU, antibody as analyte, Interaction Map spot; 150 mM NaCl; intramolecular (FIG. 16 spot 1).
For experiment [12] the target is unchanged. The experiment can be described thus: SPR, C1 chip, scFcRn amine-coupled about 80 RU, antibody as analyte, Interaction Map spot; 150 mM NaCl; intermolecular (FIG. 16 spot 2).
For experiment [13] the target is unchanged. Kind of experiment: SPR, C1 chip, scFcRn about 80 RU, Interaction Map spot; 400 mM NaCl; intramolecular.
The target is the same in experiment [14]. The experiment can be described thus: SPR, C1 chip, scFcRn about 80 RU, Interaction Map spot; 400 mM NaCl; intermolecular.
Experiment [15] has the same target. The experiment can be described thus: SPR, scFcRn on C1 chip, Interaction Map spot; 150 mM NaCl; intramolecular (FIG. 16 spot 1).
For experiment [16] the target is unchanged. The experiment can be described thus: SPR, scFcRn on C1 chip, Interaction Map spot; 150 mM NaCl; intermolecular (FIG. 16 spot 2).
For experiment [17] the target is unchanged. Kind of experiment: SPR, scFcRn on C1 chip, Interaction Map spot; 400 mM NaCl; intermolecular.
Experiment [18] shares this target. The experiment can be described thus: SPR, scFcRn on C1 chip, Interaction Map spot; 400 mM NaCl; intramolecular.
The target is the same in experiment [19]. Kind of experiment: SPR, scFcRn on C1 chip, Interaction Map spot; 400 mM NaCl; intermolecular, first of two spots.
For experiment [20] the target is unchanged. The experiment can be described thus: SPR, scFcRn on C1 chip, Interaction Map spot; 400 mM NaCl; intermolecular, second of two spots.

Among the data in patent US20240019424A1 are Kd values, retold here.

Sequence of biotinylated single chain human FcRn (beta-2-microglobulin-human FcRn fusion polypeptide with (GGGGS)4-peptidic linker and C-terminal His(10)-Avi-tag) (human) (P61769 other isoform, or with tags, fused parts or gaps limits assumed): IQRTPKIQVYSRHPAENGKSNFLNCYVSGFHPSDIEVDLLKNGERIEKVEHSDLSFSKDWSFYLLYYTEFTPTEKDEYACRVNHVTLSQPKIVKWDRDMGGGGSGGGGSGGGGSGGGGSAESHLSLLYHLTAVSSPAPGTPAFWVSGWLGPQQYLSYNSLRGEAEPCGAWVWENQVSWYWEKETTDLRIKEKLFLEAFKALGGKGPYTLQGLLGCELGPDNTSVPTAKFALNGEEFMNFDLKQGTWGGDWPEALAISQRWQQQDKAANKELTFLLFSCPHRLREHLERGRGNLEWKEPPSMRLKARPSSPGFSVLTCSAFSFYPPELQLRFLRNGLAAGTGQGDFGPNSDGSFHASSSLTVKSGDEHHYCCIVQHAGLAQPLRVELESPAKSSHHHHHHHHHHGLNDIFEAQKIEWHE

As for “anti-digoxygenin Fabs connected to a wild-type IgG1 Fc-region (from UniProt P01857 104-330) (antibody)”, the Kd in [1] worked out at 840 nM; in [2], 0.33 nM; in experiment [3] it was 126 nM; in experiment [4], 5.7 nM; in experiment [5] it was 0.16 nM; in experiment [6] it was 1140 nM. Further, the Kd in experiment [7] amounted to 75 nM; in experiment [8] it was 100 nM; in experiment [9], 382 nM; in [10], 4.8 nM.

With “anti-digoxygenin Fabs connected to an IgG1 Fc-region with the mutations M252Y/S254T/T256E in both Fc-region polypeptides (from UniProt P01857 104-330) (antibody)”, the Kd in experiment [1] came out at 92 nM; in experiment [2], 1.6 nM; in experiment [9] it was 92 nM.

In the case of “anti-digoxygenin Fabs connected to an IgG1 Fc-region with the mutations T307H/N434H in both Fc-region polypeptides (from UniProt P01857 104-330) (antibody)”, the dissociation constant Kd in [1] is 156 nM; in experiment [2], 0.13 nM; in [3] it was 71 nM; in experiment [4], 3 nM; in [5], 0.12 nM; in experiment [8] it was 25 nM. For the same substance, the Kd in experiment [9] was 177 nM.

With “anti-digoxygenin-Fabs added to the Fc-region with a single FcRn binding site (mutations I253A/H310A/H435A in one Fc-region polypeptide and wild-type in the respective other Fc-region polypeptide) (from UniProt P01857 104-330; P01857 104-330) (antibody)”, the Kd in experiment [11] is 1250 nM; in experiment [12], 20.5 nM; in experiment [13], 1060 nM; in [14] it was 60 nM.

As to “asymmetric antibody with the mutations I253A/H310A/H435A in one Fc-region polypeptide and the mutations M252Y/S254T/T256E in the respective other Fc-region polypeptide (from UniProt P01857 104-330; P01857 104-330)”, the Kd amounted to 184 nM in experiment [15], 4.7 nM in [16], 6.2 nM in experiment [17] and 166 nM in [18].

With “asymmetric antibody with the mutations I253A/H310A/H435A in one Fc-region polypeptide and the mutations T307H/N434H in the respective other Fc-region polypeptide (from UniProt P01857 104-330; P01857 104-330)”, the Kd worked out at 4.3 nM in [19]; 391 nM in experiment [15]; 10.4 nM in [16]; 39 nM in experiment [20]; 325 nM in [18].

Broadly, the Kd is the free concentration of one partner at which half of the binding sites on the other are occupied at equilibrium, for simple one-to-one binding. Read a high Kd as lower affinity.
